Assay [1] has as its target whole Zika virus (ZIKV) virion (Zika virus). As to the kind of experiment: whole ZIKV virion ELISA, 5-fold dilutions from 100 ug/ml. For orientation: ELISA stands for enzyme-linked immunosorbent assay.
Assay [2] shares this target. As to the kind of experiment: cell-based or functional assay.
Assay [3] addresses Dengue virus serotype 1 virion (Dengue virus serotype 1). The experiment in a line: cell-based or functional assay.
Assay [4] concerns the target Dengue virus serotype 4 virion (Dengue virus serotype 4). The experiment in a line: cell-based or functional assay.
Assay [5] deals with Dengue virus serotype 2 virion (Dengue virus serotype 2). As to the kind of experiment: cell-based or functional assay.
In assay [6] the target is whole Zika virus (ZIKV) virion (Zika virus). The experiment in a line: cell-based or functional assay. This is another data set of the same source.
For assay [7], the target named is Dengue virus serotype 3 virion (Dengue virus serotype 3). As to the kind of experiment: cell-based or functional assay.
The target in assay [8] is whole Zika virus (ZIKV) virion (Zika virus). As to the kind of experiment: whole ZIKV virion ELISA; molar EC50 of IgM compared with IgG.
The target is the same in assay [9]. The experiment in a line: whole ZIKV virion ELISA; molar conversion with IgM ~970 KDa.
The target is the same in assay [10]. As to the kind of experiment: whole ZIKV virion ELISA; molar conversion with IgG ~150 KDa.

Consider two molecules from patent US12570725.

Several values for one entry are separate records, joined by “and”; a condition that tells them apart may be missing. Equal values may be shown once. Read-outs that look alike come from different tables or passages of the source.

B1: DH1017.IgM (antibody, V domains shown)
VH: QVQLQESGPGLVKPSQTLSLTCAVSGGSISSGDSYWSWIRQHPGKGLEWIGSIYYSGSTYYNPSLKSRVTIPIDTSKNQFSLKLSSVTAADTAVYYCARHVGDLRVNDAFDIWGQGTMVTVSS
VL: QSVLTQPPSVSAAPGQKVTISCSGSSSNIGNNFVSWYQRLPGTPPKLLIYDSDKRPSGIPDRFSGSKSGTSATLGITGLQTGDEGDYYCGTWDRSLSVVVFGGGTKLTVL
The EC50 is the concentration giving half of the maximal effect. Read a high EC50 as a less potent agent. With B1, the EC50 in assay [1] came to 0.046 µg/mL; in assay [9] it was 0.474 nM. Moreover, the FRNT50 in assay [2] was 24.7 ng/ml and 25.5 pM; in assay [3], more than 5 µg/mL; in assay [4], more than 5 µg/mL; in assay [5], more than 5 µg/mL; in assay [6] it was 6.57 ng/mL; in assay [7] it was more than 5 µg/mL. In assay [2], this molecule showed a fold difference in neutralizing activity, IgM versus IgG at equal numbers of molecules of 40 fold. The molecule further came in with a fold difference of molar EC50 against DH1017.IgG in assay [8] of 6 fold.

B2: DH1017.IgG (antibody, V domains shown)
VH: B1 VH
VL: B1 VL
Turning to B2, the concentration for a half-maximal effect (EC50) in assay [1] worked out at 0.045 µg/mL; in [10] it was 3 nM.
